Data on two substances can be found in patent EP4269437A1.

Some targets named below: CD28 (UniProt P10747); CTLA-4 (UniProt P16410); ICOS (UniProt Q9Y6W8).
Holding throughout (test): ELISA on coated protein, anti-human Fc HRP
(In general: In an ELISA, binding on a coated surface is turned into a signal by an enzyme label.)

Assay [1] addresses cynomolgus monkey PD-1 protein (cynomolgus monkey) (UniProt B0LAJ3).
In assay [2] the target is murine PD-1 protein (murine) (UniProt Q02242).

Several values for one entry are separate records, joined by “and”; a condition that tells them apart may be missing. Equal values may be shown once.

Sequence of ICOS (Q9Y6W8 21-140 limits assumed): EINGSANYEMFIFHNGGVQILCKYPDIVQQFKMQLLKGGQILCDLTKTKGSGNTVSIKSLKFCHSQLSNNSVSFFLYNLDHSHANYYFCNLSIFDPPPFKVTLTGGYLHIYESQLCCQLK
Sequence of CTLA-4 (P16410 36-161 limits assumed): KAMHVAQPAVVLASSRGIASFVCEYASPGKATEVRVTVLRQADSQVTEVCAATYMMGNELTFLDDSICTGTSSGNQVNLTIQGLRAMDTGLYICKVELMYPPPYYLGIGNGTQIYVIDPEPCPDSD
Sequence of murine PD-1 protein (murine) (Q02242 25-167 limits assumed): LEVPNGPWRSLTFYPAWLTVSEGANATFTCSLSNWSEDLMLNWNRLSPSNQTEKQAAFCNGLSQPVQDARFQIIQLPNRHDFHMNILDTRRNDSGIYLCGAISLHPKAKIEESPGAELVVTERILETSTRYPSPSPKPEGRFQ
Sequence of cynomolgus monkey PD-1 protein (cynomolgus monkey) (B0LAJ3 entry or part of it limits assumed, form in doubt): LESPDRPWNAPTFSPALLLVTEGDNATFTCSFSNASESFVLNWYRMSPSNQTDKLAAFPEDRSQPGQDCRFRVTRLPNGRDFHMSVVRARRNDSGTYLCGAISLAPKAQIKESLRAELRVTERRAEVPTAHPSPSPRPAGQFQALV

With Opdivo (antibody), the ELISA (OD) with CD28 is 0.02 OD and 0.021 OD and 0.023 OD; with CTLA-4, 0.024 OD and 0.022 OD and 0.019 OD; with ICOS, 0.023 OD and 0.021 OD and 0.022 OD; in assay [1] it was 1.89 OD and 1.79 OD and 1.83 OD; in assay [2] it was 0.024 OD and 0.023 OD.
For the substance Keytruda (antibody), the ELISA (OD) with CD28 was 0.066 OD and 0.054 OD and 0.053 OD; with CTLA-4, 0.09 OD and 0.086 OD and 0.089 OD; with ICOS, 0.125 OD and 0.107 OD and 0.131 OD; in assay [1], 2.22 OD and 2.32 OD; in assay [2], 0.079 OD and 0.088 OD and 0.09 OD.
